Assay results published in paper PMC6497721, “DNA methylation repels targeting of Arabidopsis REF6”.

T1: REF6 ZnF1-4 (Arabidopsis thaliana, UniProt Q9STM3 1239-1360)
T1 sequence: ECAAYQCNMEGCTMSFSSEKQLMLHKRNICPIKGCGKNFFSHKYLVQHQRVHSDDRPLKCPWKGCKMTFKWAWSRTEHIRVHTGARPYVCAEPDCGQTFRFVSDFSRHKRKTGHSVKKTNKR

T2: GST-REF6C (ZnF1-4) (Arabidopsis thaliana, UniProt Q9STM3 1239-1360)
T2 sequence: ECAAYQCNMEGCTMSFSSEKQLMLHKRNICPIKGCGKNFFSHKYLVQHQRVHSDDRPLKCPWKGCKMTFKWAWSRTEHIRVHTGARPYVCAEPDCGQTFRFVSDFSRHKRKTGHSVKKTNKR


Experiments:
REF6 ZnF1-4 = target: T1, REF6 ZnF1-4; experiment: ITC; 20 uM ZnCl2; ITC: 20 mM Tris-HCl pH 7.5, 150 mM NaCl, 20 uM ZnCl2, 25 C; EMSA: 25 mM Tris-HCl pH 8.0, 100 mM NaCl, 2.5 mM MgCl2, 0.1% CA-630, 10% glycerol, 1 uM ZnSO4, 1 mM; conditions: protein: recombinant; tags: GST removed by PreScission; blunt
GST-REF6C (ZnF1-4) = target: T2, GST-REF6C (ZnF1-4); experiment: EMSA; 1 uM ZnSO4; ITC: 20 mM Tris-HCl pH 7.5, 150 mM NaCl, 20 uM ZnCl2, 25 C; EMSA: 25 mM Tris-HCl pH 8.0, 100 mM NaCl, 2.5 mM MgCl2, 0.1% CA-630, 10% glycerol, 1 uM ZnSO4, 1 mM; conditions: protein: recombinant; tags: N-terminal GST (pGEX-6P-1); label: 5'-32P; blunt

| Binder | Kd (REF6 ZnF1-4) [nM] | binding result (GST-REF6C (ZnF1-4)) |
| --- | --- | --- |
| NAC004P 12-mer (dsDNA) DNA 1: TTCTCTGTTTTG DNA 2: CAAAACAGAGAA | 73.5 ± 7 | – |
| NAC004 50-bp probe (dsDNA) DNA 1: GGGAGAATCTCAAACTTTCTCTGTTTTGTCTTTAGAAACTTTGAAATATC DNA 2: GATATTTCAAAGTTTCTAAAGACAAAACAGAGAAAGTTTGAGATTCTCCC | – | binds |
| NAC004P_5mC1 (dsDNA, 5mC at top strand position 3) DNA 1: TTCTCTGTTTTG DNA 2: CAAAACAGAGAA | 65.7 ± 4.9 | – |
| NAC004P_5mC3 (dsDNA, 5mC at top strand position 5) DNA 1: TTCTCTGTTTTG DNA 2: CAAAACAGAGAA | 110 ± 3.8 | – |
